Our source for the tissue uptake and IC50 values is article PMC9165289, “Theranostic PSMA ligands with optimized backbones for intraoperative multimodal imaging and photodynamic therapy of prostate cancer” (European Journal of Nuclear Medicine and Molecular Imaging, 2022).

The nature of data set [1]: PSMA-N064 blocking experiment, ex vivo biodistribution. Type of data set: in vivo, BALB/c nude mice. The conditions noted are these: male, BALB/c nude, mouse, in vivo, total radioactivity, 2 h p.i., n=5. As for the experimental part:
All animal experiments were approved by the institutional Animal Welfare Committee of the Radboud University Medical Center and were conducted in accordance to the guidelines of the Revised Dutch Act on Animal Experimentation. Animal experiments were performed in 8–10 weeks old male BALB/c nude mice (Janvier). The mice were housed in individually ventilated cages (Blue line IVC, 3–5 mice per cage), under standard non-sterile conditions with cage enrichment present. There was free access to chlorophyll-free animal chow (Sniff Voer) and water. Mice were subcutaneously inoculated with 3.0 × 10^6 LS174T-PSMA cells in the right flank and 1.5 × 10^6 LS174T WT cells in the left flank (diluted in 200-µl RPMI 1640 medium). When xenografts were approximately 0.5 cm^3 (10–14 days after injection), mice were block-randomized into groups based on tumor size. The researchers were not blinded for the experimental groups.
Five mice per group were intravenously injected with either 0.1 nmol PSMA-N064, 0.3 nmol PSMA-N064, 0.1 nmol PSMA-N064 + 10 nmol unlabeled PSMA-617 (100x excess) or PSMA-617. Ligands were labeled with 10 MBq ^111In in PBS+0.5% (w/v) BSA. For the ex vivo biodistribution four groups (one for each experimental condition) of five mice were included. Two hours p.i., all mice from all groups were euthanized by CO2/O2-asphyxiation and relevant tissues were dissected, weighed and measured for radioactivity in a gamma-counter (2480 WIZARD^2 Automatic Gamma Counter, PerkinElmer).

In a further data set the target is T1, PSMA (Homo sapiens, UniProt Q04609).
T1 construct: expressed in transfected cells; host or cells: LS174T colon carcinoma cells (LS174T-PSMA)
As to the kind of experiment: competitive binding assay using LS174T-PSMA cells. An excerpt:
Fig. 3 In vitro characterization of [^111In]In-DOTA(GA)-IRDye700DX-PSMA ligands varying in their backbone composition. a Labeling efficiency of [^111In]In-DOTA-PSMA-N01, -N02, -N03, [^111In]In-DOTAGA-PSMA-N064 and -N064inc at a specific activity of either 10 MBq/µg or 30 MBq/µg (n = 2). IC50 values of ligands as determined in competitive binding assays using LS174T-PSMA cells. b Binding and internalization of [^111In]In-DOTA-PSMA-N01, -N02, -N03, [^111In]In-DOTAGA-PSMA-N064 and -N064inc in LS174T PSMA-positive cells. Membrane binding and internalization are corrected for non-specific binding and accumulation, as determined by co-incubation with an excess of 2-PMPA (50 µg). [^111In]In-DOTA-PSMA-617 was added as a positive control. c PSMA-targeted PDT efficacy of ligands in vitro. Cell viability of LS174T-PSMA (PSMA +) and LS174T wildtype (PSMA-) cells following incubation with 30 nM of PSMA-N01, -N02, -N03, -N064, and -N064inc, after either a 100 J/cm^2 (450 mW/cm^2) radiant exposure or no light exposure (dark).

Structures are written as SMILES. Several values for one entry are separate records, joined by “and”; a condition that tells them apart may be missing. Identical values can stand only once. Like-named read-outs stand apart in the source and are kept apart here.

T1 sequence (Q04609 whole entry): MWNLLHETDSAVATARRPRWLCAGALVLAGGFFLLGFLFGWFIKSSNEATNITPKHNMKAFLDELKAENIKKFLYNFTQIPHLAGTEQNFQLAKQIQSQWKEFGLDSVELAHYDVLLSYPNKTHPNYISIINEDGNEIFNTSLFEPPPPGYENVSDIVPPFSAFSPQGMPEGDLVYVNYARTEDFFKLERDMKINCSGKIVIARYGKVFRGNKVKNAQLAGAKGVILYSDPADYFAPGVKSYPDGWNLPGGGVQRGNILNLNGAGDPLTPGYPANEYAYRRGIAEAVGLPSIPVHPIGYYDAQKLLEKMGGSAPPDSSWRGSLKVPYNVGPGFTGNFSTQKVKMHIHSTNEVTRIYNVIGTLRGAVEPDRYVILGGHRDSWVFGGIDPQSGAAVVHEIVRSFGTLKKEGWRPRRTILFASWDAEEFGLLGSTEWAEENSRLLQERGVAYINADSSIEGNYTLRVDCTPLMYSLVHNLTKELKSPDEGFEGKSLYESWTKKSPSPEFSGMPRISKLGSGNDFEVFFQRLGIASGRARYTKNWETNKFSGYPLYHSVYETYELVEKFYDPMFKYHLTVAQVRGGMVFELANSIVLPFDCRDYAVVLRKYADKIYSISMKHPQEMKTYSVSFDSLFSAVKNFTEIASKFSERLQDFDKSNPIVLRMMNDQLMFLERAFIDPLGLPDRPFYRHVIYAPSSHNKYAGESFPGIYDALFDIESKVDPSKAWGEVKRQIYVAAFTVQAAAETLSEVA

Turning to `C[Si](C)(CCC[N+](CCCS(=O)(=O)[O-])(CCCS(=O)(=O)O)CCCS(=O)(=O)O)O[Si]1(O[Si](C)(C)CCC[N+](CCCS(=O)(=O)[O-])(CCCS(=O)(=O)O)CCCS(=O)(=O)O)n2c3c4ccccc4c2N=C2N=C(N=c4c5c(OCCCOC(=O)NCCCCCC(=O)NCCCC[C@H](NC(=O)CCC(C(=O)O)N6CCN(CC(=O)O)CCN(CC(=O)O)CCN(CC(=O)O)CC6)C(=O)N[C@@H](Cc6ccccc6)C(=O)N[C@@H](CCC(=O)O)C(=O)N[C@@H](CCC(=O)O)C(=O)NCCCCCC(=O)NCCCC[C@H](NC(=O)N[C@@H](CCC(=O)O)C(=O)O)C(=O)O)cccc5c(n41)=NC1=NC(=N3)c3ccccc31)c1ccccc12` (stereo partly drawn) [PSMA-N064], the tissue uptake at 2 h in data set [1] (iv, 0.1 nmol, 0.1 nmol, 10 MBq, i.v., read-out: Biodistribution Blood) came out at 0.2 ± 0.2 %ID/g; in data set [1] (iv, 0.1 nmol, 0.1 nmol, 10 MBq, i.v., read-out: Biodistribution Bone), 0.7 ± 0.2 %ID/g; in data set [1] (iv, 0.1 nmol, 0.1 nmol, 10 MBq, i.v., read-out: Biodistribution Kidney) it was 82.9 ± 7.8 %ID/g; in data set [1] (iv, 0.1 nmol, 0.1 nmol, 10 MBq, i.v., read-out: Biodistribution Liver) it was 0.8 ± 0.1 %ID/g; in data set [1] (iv, 0.1 nmol, 0.1 nmol, 10 MBq, i.v., read-out: Biodistribution Muscle) it was 0.4 ± 0.4 %ID/g; in data set [1] (iv, 0.1 nmol, 0.1 nmol, 10 MBq, i.v., read-out: Biodistribution Prostate) it was 0.5 ± 0.2 %ID/g. The tissue uptake at 2 h stood at 0.6 ± 0.1 %ID/g in data set [1] (iv, 0.1 nmol, 0.1 nmol, 10 MBq, i.v., read-out: Biodistribution Salivary glands); 1.6 ± 0.4 %ID/g in data set [1] (iv, 0.1 nmol, 0.1 nmol, 10 MBq, i.v., read-out: Biodistribution Spleen); 12 ± 2 %ID/g in data set [1] (iv, 0.1 nmol, 0.1 nmol, 10 MBq, i.v., read-out: Biodistribution Tumor+ LS174T-PSMA); 0.4 ± 0.1 %ID/g in data set [1] (iv, 0.1 nmol, 0.1 nmol, 10 MBq, i.v., read-out: Biodistribution Tumor- LS174T); 0.4 ± 0.3 %ID/g in data set [1] (iv, 0.3 nmol, 0.3 nmol, 10 MBq, i.v., read-out: Biodistribution Blood); 0.8 ± 0.1 %ID/g in data set [1] (iv, 0.3 nmol, 0.3 nmol, 10 MBq, i.v., read-out: Biodistribution Bone). The tissue uptake at 2 h was determined as 64.4 ± 9.7 %ID/g in data set [1] (iv, 0.3 nmol, 0.3 nmol, 10 MBq, i.v., read-out: Biodistribution Kidney); 1 ± 0.2 %ID/g in data set [1] (iv, 0.3 nmol, 0.3 nmol, 10 MBq, i.v., read-out: Biodistribution Liver); 0.5 ± 0.3 %ID/g in data set [1] (iv, 0.3 nmol, 0.3 nmol, 10 MBq, i.v., read-out: Biodistribution Muscle); 0.6 ± 0.2 %ID/g in data set [1] (iv, 0.3 nmol, 0.3 nmol, 10 MBq, i.v., read-out: Biodistribution Prostate); 0.6 ± 0.2 %ID/g in data set [1] (iv, 0.3 nmol, 0.3 nmol, 10 MBq, i.v., read-out: Biodistribution Salivary glands); 1.9 ± 0.5 %ID/g in data set [1] (iv, 0.3 nmol, 0.3 nmol, 10 MBq, i.v., read-out: Biodistribution Spleen). Besides, the tissue uptake at 2 h in data set [1] (iv, 0.3 nmol, 0.3 nmol, 10 MBq, i.v., read-out: Biodistribution Tumor+ LS174T-PSMA) came out at 12.2 ± 1.1 %ID/g; in data set [1] (iv, 0.3 nmol, 0.3 nmol, 10 MBq, i.v., read-out: Biodistribution Tumor- LS174T), 0.5 ± 0.1 %ID/g; in data set [1] (0.1 nmol + 10 nmol unlabeled PSMA-617 (block, 100x excess), read-out: Biodistribution Blood), 0.2 ± 0.1 %ID/g; in data set [1] (0.1 nmol + 10 nmol unlabeled PSMA-617 (block, 100x excess), read-out: Biodistribution Bone), 0.4 ± 0.1 %ID/g; in data set [1] (0.1 nmol + 10 nmol unlabeled PSMA-617 (block, 100x excess), read-out: Biodistribution Kidney), 39.5 ± 5 %ID/g; in data set [1] (0.1 nmol + 10 nmol unlabeled PSMA-617 (block, 100x excess), read-out: Biodistribution Liver) it was 0.7 ± 0.2 %ID/g. The tissue uptake at 2 h in data set [1] (0.1 nmol + 10 nmol unlabeled PSMA-617 (block, 100x excess), read-out: Biodistribution Muscle) is 0.1 ± 0.1 %ID/g; in data set [1] (0.1 nmol + 10 nmol unlabeled PSMA-617 (block, 100x excess), read-out: Biodistribution Prostate), 0.2 ± 0.1 %ID/g; in data set [1] (0.1 nmol + 10 nmol unlabeled PSMA-617 (block, 100x excess), read-out: Biodistribution Salivary glands), 0.4 ± 0.1 %ID/g; in data set [1] (0.1 nmol + 10 nmol unlabeled PSMA-617 (block, 100x excess), read-out: Biodistribution Spleen), 0.5 ± 0.1 %ID/g; in data set [1] (0.1 nmol + 10 nmol unlabeled PSMA-617 (block, 100x excess), read-out: Biodistribution Tumor+ LS174T-PSMA), 1 ± 0.1 %ID/g; in data set [1] (0.1 nmol + 10 nmol unlabeled PSMA-617 (block, 100x excess), read-out: Biodistribution Tumor- LS174T), 0.4 ± 0.2 %ID/g.

Consider `C[Si](C)(CCC[N+](CCCS(=O)(=O)[O-])(CCCS(=O)(=O)O)CCCS(=O)(=O)O)O[Si]1(O[Si](C)(C)CCC[N+](CCCS(=O)(=O)[O-])(CCCS(=O)(=O)O)CCCS(=O)(=O)O)n2c3c4ccccc4c2N=C2N=C(N=c4c5c(OCCCOC(=O)NCCCCCC(=O)NCCCC[C@H](NC(=O)CN6CCN(CC(=O)O)CCN(CC(=O)O)CCN(CC(=O)O)CC6)C(=O)NCCCC[C@H](NC(=O)[C@H](CCC(=O)O)NC(=O)c6ccccc6)C(=O)NC[C@H]6CC[C@H](C(=O)N[C@@H](Cc7ccc8ccccc8c7)C(=O)NCCCC[C@H](NC(=O)N[C@@H](CCC(=O)O)C(=O)O)C(=O)O)CC6)cccc5c(n41)=NC1=NC(=N3)c3ccccc31)c1ccccc12` [PSMA-N03], for which the IC50 on PSMA is 41.8 nM; on PSMA (listed as -N03), less than 50 nM.

Turning to `C[Si](C)(CCC[N+](CCCS(=O)(=O)[O-])(CCCS(=O)(=O)O)CCCS(=O)(=O)O)O[Si]1(O[Si](C)(C)CCC[N+](CCCS(=O)(=O)[O-])(CCCS(=O)(=O)O)CCCS(=O)(=O)O)n2c3c4ccccc4c2N=C2N=C(N=c4c5c(OCCCOC(=O)NCCCCCC(=O)NCCCC[C@H](NC(=O)CN6CCN(CC(=O)O)CCN(CC(=O)O)CCN(CC(=O)O)CC6)C(=O)NCCCC[C@H](NC(=O)[C@H](CCC(=O)O)NC(=O)c6ccccc6)C(=O)NCc6ccc(C(=O)N[C@@H](Cc7ccc8ccccc8c7)C(=O)NCCCC[C@H](NC(=O)N[C@@H](CCC(=O)O)C(=O)O)C(=O)O)cc6)cccc5c(n41)=NC1=NC(=N3)c3ccccc31)c1ccccc12` [PSMA-N01], the IC50 at PSMA was 44.8 nM and < 50 nM.
